Measured values as given in publication PMC5548745, “Agonist-induced dimer dissociation as a macromolecular step in G protein-coupled receptor signaling” (Nature Communications, 2017).
Positions count from the first letter of the chain named. Numbers in names are those of the source. Entries after “also recorded” stand apart in the source; their conditions may differ.

Legend:
[1] = system: ERK1/2 phosphorylation in HEK293 cells; test: P-ERK1/2 immunoblot, HEK293 cells expressing SNAP-FZD6 constructs; assay type: cell-based
Protocol: Fig. 6 Relationship between FZD6 dimerization and phosphorylation of ERK1/2. a Mouse lung epithelial (MLE-12) cells were stimulated with WNT-5A (300 ng ml^−1) for 0, 2.5, 5, 10, 20 min. Cell lysates were analyzed for P-ERK1/2 and β-actin by immunoblotting. Additional information in Supplementary Fig. 6. b Bar graph summarizes three independent experiments. Densitometry data were normalized to the unstimulated control. […] Additional information in Supplementary Fig. 6. SNAP-FZD6 wt- and SNAP-FZD6 dimer mutant-induced ERK1/2 phosphorylation in the absence e and presence f of the porcupine inhibitor C59 (5 µM, overnight) were probed by immunoblotting for the SNAP-tag, P-ERK1/2, total ERK1/2 and β-actin. g The bar graph summarizes densitometry data of P-ERK1/2 normalized to total ERK1/2 from 6 different experiments. P = 0.0005; F (2, 15) = 13.08. ***P < 0.001. Empty vector transfection was used as mock. h Increasing amounts of plasmid of either SNAP-FZD6 wt or SNAP-FZD6 dimer mutant in the presence of C59 show a dose-dependent increase in P-ERK1/2 only with the dimer mutant. Data from three independent experiments for the dimer mutant were fit to a linear least-squares model (slope = 0.40 ± 0.10; R ^2 = 0.5943) and this line is shown superimposed. […] This dissociation-dependent activation can be evoked by agonist (WNT^high) or mutation of the dimer interface (symbolized by red stars). WNT^low conditions can be achieved in the presence of C59, which reduces FZD6 wt signaling
MLE-12 or HEK293 cells (ATCC) were plated in a 24- or 48-well plate at a density of 100,000 or 50,000 cells/well, respectively. After 24 h, cells were transfected using Lipofectamine 2000 according to the manufacturer’s instructions. Cells were stimulated (24 h post-transfection) with 300 ng ml^−1 recombinant carrier-free WNT-5A (CF WNT-5A; R&D Systems). Stimulation was stopped by the addition of lysis buffer (1% NP-40, 150 mM NaCl, 50 mM Tris/HCl pH 8). Lysates were sonicated and analyzed by 7.5 or 10% Mini-PROTEAN TGX precast polyacrylamide gels (Bio-Rad) and transferred to PVDF membranes using the Trans-Blot Turbo system (Bio-Rad). After blocking with 5% milk or BSA in TBS-T, membranes were incubated with primary antibodies in blocking buffer: mouse anti-β-actin (1:30,000; Sigma #A5441), rabbit anti-FZD6 (1:1000; NovusBio #NBP1-00830), rabbit anti-Phospho-p44/42 MAPK (ERK1/2) (Thr202/Tyr204) (1:1000; Cell Signaling Technology #9101 L), rabbit anti-p44/42 MAPK (ERK1/2) (1:1000; Cell Signaling Technology #9102), rabbit anti-Phospho-C-RAF (Ser338) (1:1000; Cell Signaling Technology #56A6), rabbit anti-SNAP tag (1:1000, New England Biolabs #P9310S), and rabbit anti-HA (1:4000, abcam #ab9110) overnight at 4 °C. Proteins were detected with horseradish peroxidase-conjugated secondary antibodies (goat anti-rabbit and goat anti-mouse (Pierce)) and Clarity Western ECL Blotting Substrate (Bio-Rad). All uncropped immunoblots can be found in the Supplementary Information.

porcupine = conditions: cited from earlier work
[2] = system: SNAP-β2-adrenergic receptor; test: SNAP-β2-AR internalization by confocal microscopy; assay type: cell-based; conditions: HEK293; isoproterenol 10 µM, 15 min
Protocol: SNAP-FZD6 and SNAP-β2-AR were imaged in living cells using a Zeiss LSM710 equipped with a 40×, 1.2 NA C-Apochromat objective. The cell-impermeable SNAP substrate SNAP-Surface 549 (New England Biolabs) was added (1:1000, 15 min), washed twice in BE buffer and imaged using the 561 nm laser line. SNAP-FZD6 and SNAP-β2-AR were stimulated with 300 ng ml^−1 WNT-5A and 10 µM isoproterenol, respectively, and fluorescence was monitored over time.

FZD6–FZD6 dimer = test: dcFRAP of V5-FZD6-mCherry/FZD6-GFP (FZD6 dimerization); assay type: cell-based, human; conditions: HEK293; GFP-tagged mutant with wt V5-FZD6-mCherry; anti-V5/avidin crosslinking
Summary of the method: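 Live cells co-expressing V5-FZD6-mCherry and FZD6-GFP, surface V5 tag crosslinked with biotin-anti-V5 plus avidin in BE buffer at RT. Membrane areas photobleached, recovery imaged (488/561 nm) over 100 s; mobile fraction from background/bleach-corrected, pre-bleach-normalized intensity at 85-101 s. Cells with <40% crosslink-induced mobility reduction excluded.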

DVL2-GFP = test: dcFRAP with chemical surface crosslinking, FZD6 dimer mutant/DVL2-GFP; assay type: cell-based; conditions: inactive state
Protocol: For dual color FRAP experiments, cells grown in four compartment 35 mm glass bottom dishes were washed three times with BE buffer[19] (150 mM NaCl, 2.5 mM KCl, 10 mM HEPES, 12 mM glucose, 0.5 mM CaCl2, and 0.5 mM MgCl2). Then, the cells were incubated at RT for 30 min with biotin-conjugated goat polyclonal anti-V5 antibody (Bethyl) diluted 1:100 in BE buffer supplemented with 2.5% bovine serum albumin. For antibody-mediated cross-linking, avidin was added and incubated for 15 min and washed two times with BE buffer before the experiments were performed. […] Fluorescence was measured pre- and post-bleach using low-intensity illumination for a total time period of 100 s. Average pixel intensity was measured using the ZEN2013 software, corrected for background fluctuations and bleaching artifacts and normalized to pre-bleached intensity. The recovered mobile fraction (F m) was calculated as follows: F m = (I P–I 0)/(I I–I 0), where I I is the initial intensity measured prior to bleaching, I 0 is the immediate fluorescence intensity post-bleaching and I P is intensity value post-bleaching. The mobile fraction was defined by the average of the fluorescence recovery assessed between time 85–101 s (including pre-bleach measurements). […]

[3] = system: subcellular localization in HEK293 cells; test: co-localization of FZD6-R511C with FZD6 constructs; assay type: cell-based, human; conditions: FZD6-R511C with FZD6-mCherry, or FZD6 dimer mutant with FZD6-R511C
Gαi1-GFP = conditions: cited from earlier work

In the case of Cc1cc(-c2ccc(CC(=O)Nc3ccc(-c4cccnc4)cc3)cc2)ccn1 [C59, 2-[4-(2-Methylpyridin-4-yl)phenyl]-N-[4-(pyridin-3-yl)phenyl]acetamide], the “effect of C59 on FZD6 wt-induced P-ERK1/2” value ([1]; HEK293, C59 5 µM overnight) is listed as “reduced to basal” and the “effect on endogenous WNT secretion” value (porcupine) is listed as “blocks secretion of WNT proteins; also recorded: abrogates endogenous WNT secretion”.

For CC(C)NCC(O)c1ccc(O)c(O)c1 (centres unmarked) [isoproterenol], the “internalization of SNAP-β2-adrenergic receptor” value [2] was “appearance of numerous endosome-like structures after 15 min”.

B1: FZD6 dimer mutant: D365A, R368A, Y369A triple mutant of FZD6 (protein)
chain: HSLFTCEPITVPRCMKMAYNMTFFPNLMGHYDQSIAAVEMEHFLPLANLECSPNIETFLCKAFVPTCIEQIHVVPPCRKLCEKVYSDCKKLIDTFGIRWPEELECDRLQYCDETVPVTFDPHTEFLGPQKKTEQVQRDIGFWCPRHLKTSGGQGYKFLGIDQCAPPCPNMYFKSDELEFAKSFIGTVSIFCLCATLFTFLTFLIDVRRFRYPERPIIYYSVCYSIVSLMYFIGFLLGDSTACNKADEKLELGDTVVLGSQNKACTVLFMLLYFFTMAGTVWWVILTITWFLAAGRKWSCEAIEQKAVWFHAVAWGTPGFLTVMLLAMNKVEGDNISGVCFVGLYDLAASAAFVLLPLCLCVFVGLSLLLAGIISLNHVRQVIQHDGRNQEKLKKFMIRIGVFSGLYLVPLVTLLGCYVYEQVNRITWEITWVSDHCRQYHIPCPYQAKAKARPELALFMIKYLMTLIVGISAVFWVGSKKTCTEWAGFFKRNRKRDPISESRRVLQESCEFFLKHNSKVKHKKKHYKPSSHKLKVISKSMGTSTGATANHGTSAVAITSHDYLGQETLTEIQTSPETSMREVKADGASTPRLREQDCGEPASPAASISRLSGEQVDGKGQAGSVSESARSEGRISPKSDITDTGLAQSNNLQVPSSSEPSSLKGSTSLLVHPVSGVRKEQGGGCHSDT
modifications: left off: GFP, C-terminal, kept
In the case of B1, the “dimerization by CL-induced decrease of mobile fraction” value (FZD6–FZD6 dimer) is reported as “did not result in a decrease of the mobile fraction of FZD6-GFP”, the “P-ERK1/2 induction in presence of C59” value ([1]; HEK293, C59 5 µM overnight) is reported as “maintained its ability to induce ERK1/2 phosphorylation” and the “slope of P-ERK1/2 vs plasmid amount” value ([1]; HEK293, C59, linear least-squares, R^2 = 0.5943, three independent experiments) is reported as 0.40 ± 0.10. The “effect of overexpression on basal P-ERK1/2 without C59” value ([1]; serum-starved HEK293, no C59) was “increased basal P-ERK1/2”, the “assembly with DVL” value (DVL2-GFP) was “retained the ability to interact with the scaffold protein DVL” and the “subcellular localization on co-expression” value [3] was “maintained cell surface localization”.

B2: FZD6-R511C: DVL-biased FZD6 nail dysplasia mutant (protein, UniProt O60353 19-706, looked up, variant R511C)
Frizzled-6: B1 chain with A347D, A350R, A351Y, R493C
modifications: GFP or mCherry tag
notes: DVL-biased FZD6 nail dysplasia mutant
In the case of B2, the “subcellular localization on co-expression” value [3] is given as “predominant intracellular localization of both constructs” and the “assembly with Gαi1/Gαq proteins” value (Gαi1-GFP) is given as “does not assemble with Gαi1/Gαq proteins”.
